In US6780986:

Experiments:
[1] = molecular target: T1, GST-Z3 (GST fused to the Z3 domain of RIP60, zinc fingers 9-15)
T1 chain: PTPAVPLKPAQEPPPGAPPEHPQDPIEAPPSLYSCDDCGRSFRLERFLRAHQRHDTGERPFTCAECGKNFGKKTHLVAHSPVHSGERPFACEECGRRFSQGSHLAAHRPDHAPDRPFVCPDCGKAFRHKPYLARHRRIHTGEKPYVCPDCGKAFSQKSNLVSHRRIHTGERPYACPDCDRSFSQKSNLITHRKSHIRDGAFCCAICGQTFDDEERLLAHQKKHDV

[2] = molecular target: T2, GST-Z2 (GST fused to the Z2 domain of RIP60, zinc fingers 6-8 plus 37 amino acids of the proline rich region)
T2 chain: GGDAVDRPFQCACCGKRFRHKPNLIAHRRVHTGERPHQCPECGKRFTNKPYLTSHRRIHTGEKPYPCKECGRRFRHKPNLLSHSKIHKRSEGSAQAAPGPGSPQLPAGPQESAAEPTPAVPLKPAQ

[3] = molecular target: T3, GST-Z1 (GST fused to the Z1 domain of RIP60, zinc fingers 1-5)
T3 chain: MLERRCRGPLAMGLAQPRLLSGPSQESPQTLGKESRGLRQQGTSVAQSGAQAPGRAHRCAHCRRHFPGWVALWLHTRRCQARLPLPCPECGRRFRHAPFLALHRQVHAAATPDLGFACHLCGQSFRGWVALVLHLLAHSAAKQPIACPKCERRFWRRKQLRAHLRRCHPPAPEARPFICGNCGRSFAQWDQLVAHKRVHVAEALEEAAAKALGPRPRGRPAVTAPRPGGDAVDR

GST-Z2-P123 = molecular target: T4, GST-Z2-P123
T4 chain: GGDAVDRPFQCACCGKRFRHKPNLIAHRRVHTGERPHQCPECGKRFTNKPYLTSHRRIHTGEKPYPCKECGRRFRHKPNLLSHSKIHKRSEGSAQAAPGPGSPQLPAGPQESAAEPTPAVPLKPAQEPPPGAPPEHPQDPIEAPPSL

B1: casein kinase II (CKII; New England Biolabs) (protein)
chain 1: MSGPVPSRARVYTDVNTHRPREYWDYESHVVEWGNQDDYQLVRKLGRGKYSEVFEAINITNNEKVVVKILKPVKKKKIKREIKILENLRGGPNIITLADIVKDPVSRTPALVFEHVNNTDFKQLYQTLTDYDIRFYMYEILKALDYCHSMGIMHRDVKPHNVMIDHEHRKLRLIDWGLAEFYHPGQEYNVRVASRYFKGPELLVDYQMYDYSLDMWSLGCMLASMIFRKEPFFHGHDNYDQLVRIAKVLGTEDLYDYIDKYNIELDPRFNDILGRHSRKRWERFVHSENQHLVSPEALDFLDKLLRYDHQSRLTAREAMEHPYFYTVVKDQARMGSSSMPGGSTPVSSANMMSGISSVPTPSPLGPLAGSPVIAAANPLGMPVPAAAGAQQ
chain 2: not shown
phosphorylation in vitro (32P-ATP, SDS gel, autoradiography) [1]: neither GST-Z1 nor GST-Z3 were phosphorylated to any great degree | phosphorylation in vitro (32P-ATP, SDS gel, autoradiography) [2]: Only the GST-Z2 polypeptide, which contains the casein kinase II phosphorylation domain was phosphorylated | phosphorylation in vitro with and without DNA (32P-ATP, SDS gel, autoradiography) [2]: GST-Z2 polypeptide was phosphorylated by casein kinase II in the absence of DNA. However, the extent of phosphorylation increased in the presence of the double stranded DRS oligo, the linearized plasmid pCH127 and the supercoiled pCH127 | phosphorylation in vitro (32P-ATP, SDS gel, autoradiography) [3]: neither GST-Z1 nor GST-Z3 were phosphorylated to any great degree | phosphorylation in vitro (32P-ATP, SDS gel, autoradiography) (GST-Z2-P123): Both GST-Z2 and GST-Z2P123 were phosphorylated
